We go through six molecules from article PMC5165034 (2016).

Residue numbers refer to the chain shown, from its start.

The Kd is the free concentration of one partner at which half of the binding sites on the other are occupied at equilibrium, for simple one-to-one binding.

Sequences and labels used below:
B1: 7F2 HCAb (antibody, V domains shown)
VH: EVQLVESGGGLVKPGGSLRLSCAASGFTFSADYMSWIRQAPGKGLEWVSYISSSGSSIYYADSVKGRFTISRDNAKNSLYLQMNSLRAEDTAVYYCARGWFGESHSFDYWGQGTLVTVSS
B2: 2F4 HCAb (antibody, V domains shown)
VH: EVQLVESGGGLVKPGGSLRLSCAASGFAFSDYYMSWLRQAPGKGLEWVSYISSSGSNIYYADSVKGRFTISRDNAKNSLYLQMNSLRAEDTAVYYCARGAGVFDYLGQGGRGTLVTVSS
B3: 1G11 HCAb (antibody, V domains shown)
VH: EVQLVESGGGLVKPGGSLRLSCAASGFTFSDYYMSWIRQTPGKGLEWVSYISSSGSNIYYADSVKGRFTISRDNAKNSLYLQMNSLRAEDTAVYYCARGISMARDSWGQGTLVTVSS
B4: 1F4 HCAb (antibody, V domains shown)
VH: B3 VH with T40A, N57T, I100V, S101K, M102L, A103T, R104E, S106D
B5: 3A8 HCAb (antibody, V domains shown)
VH: B3 VH with T40A, S56D, N57I, Y80F, A97T, I100V, M102L, A103V, S106Y, L112Q
B6: 1C12 HCAb (antibody, V domains shown)
VH: B3 VH with T40A, N57T, I100V, S101A, A103V, T114N

In this experiment the target is bromelain-released HA (BHA) of influenza X-31 (influenza A strain X-31 (H3N2)). Briefly: BLI. For orientation: Biolayer interferometry detects binding as a change in optical thickness at a sensor tip.
Consider B1, for which the dissociation constant (Kd) came to 35 nM. The result for B2 reads 5.6 nM; that for B3, 2.9 nM. As for B4, the Kd stood at 6.6 nM.

In the case of B5, the dissociation constant Kd came out at 3.2 nM.

For the molecule B6, the dissociation constant Kd turned out to be 1.8 nM.
